Assay results as given in article PMC4893494, “Identification and Characterization of Five BAHD Acyltransferases Involved in Hydroxycinnamoyl Ester Metabolism in Chicory” (Frontiers in Plant Science, 2016).

System: O=C(O)C1=C[C@@H](O)[C@@H](O)[C@H](O)C1
Assay: HPLC-UV of product, Michaelis-Menten
Assay type: biochemical, Cichorium intybus
Details: acyl acceptor varied, saturating p-coumaroyl-CoA (800 μM), 50 mM phosphate pH 7.1, room temperature
Excerpt: HPLC-UV of product, Michaelis-Menten on HCT2 (CiHCT2)

HCT2 (CiHCT2) (Cichorium intybus)
Km: 802 ± 63 µM
Vmax: 18.2 µmol/min/mg
Vmax/Km: 22800 µL/min/mg
